Data as given in the Immune Epitope Database (IEDB).
pKd: −log10 of the molar value.

How the values were obtained:
Assay in all cases: IEDB peptide-MHC binding, purified MHC/competitive/radioactivity; filed as Kd, often an IC50 or EC50 that approximates it; ≥ and ≤ were set here for values at or beyond the usual limits of such assays
HLA-A*03:01 = target: HLA-A*03:01
HLA-A*11:01 = target: HLA-A*11:01
HLA-A*31:01 = target: HLA-A*31:01
HLA-A*33:01 = target: HLA-A*33:01
HLA-A*68:01 = target: HLA-A*68:01
[1] = source organism: Vaccinia virus WR
[2] = source organism: Dengue virus 3 Martinique/1243/1999
[3] = source organism: Mammarenavirus whitewaterense
[4] = source organism: Dengue virus 3 Sri Lanka/1266/2000
[5] = source organism: SARS coronavirus Tor2
[6] = source organism: Dengue virus 1 Brazil/97-11/1997
[7] = source organism: Lymphocytic choriomeningitis virus (strain Armstrong)
[8] = source organism: Dengue virus 2 Jamaica/1409/1983
[9] = source organism: Dengue virus 4 Philippines/H241/1956
[10] = source organism: Lassa virus Josiah

GLKIEEIEK
pKd (HLA-A*03:01; [1]): 5.25
pKd (HLA-A*11:01; [1]): 5.19
pKd (HLA-A*31:01; [1]): 4.88
pKd (HLA-A*33:01; [1]): 4.79
pKd (HLA-A*68:01; [1]): 4.77

MVSRLLLNR
pKd (HLA-A*11:01; [2]): 7.30
pKd (HLA-A*31:01; [2]): 8.32
pKd (HLA-A*33:01; [2]): 8.08
pKd (HLA-A*68:01; [2]): 7.89

VCFWSTLFY
pKd (HLA-A*03:01; [3]): 6.86
pKd (HLA-A*11:01; [3]): 6.03
pKd (HLA-A*31:01; [3]): ≤ 4.11
pKd (HLA-A*33:01; [3]): ≤ 4.11
pKd (HLA-A*68:01; [3]): ≤ 4.41

TIFTLTVAWR
pKd (HLA-A*31:01; [4]): 6.40
pKd (HLA-A*33:01; [4]): 6.41
pKd (HLA-A*68:01; [4]): 7.06

VLHDIGNPK
pKd (HLA-A*03:01; [5]): 7.67
pKd (HLA-A*11:01; [5]): 7.46
pKd (HLA-A*31:01; [5]): 5.71
pKd (HLA-A*33:01; [5]): 5.11
pKd (HLA-A*68:01; [5]): 5.19

GAVVKSDNK
pKd (HLA-A*03:01; [1]): 4.81
pKd (HLA-A*11:01; [1]): 6.11
pKd (HLA-A*31:01; [1]): ≤ 4.11
pKd (HLA-A*33:01; [1]): ≤ 4.11
pKd (HLA-A*68:01; [1]): 4.90

NYLDYMTSMK
pKd (HLA-A*33:01; [6]): 6.76

LLMHLVSLYK
pKd (HLA-A*03:01; [1]): 8.91
pKd (HLA-A*11:01; [1]): 9.42
pKd (HLA-A*31:01; [1]): 7.07
pKd (HLA-A*33:01; [1]): 4.80
pKd (HLA-A*68:01; [1]): 7.76

YLGVNNLPY
pKd (HLA-A*03:01; [1]): 5.89
pKd (HLA-A*11:01; [1]): 5.83
pKd (HLA-A*31:01; [1]): ≤ 4.11
pKd (HLA-A*33:01; [1]): ≤ 4.11
pKd (HLA-A*68:01; [1]): ≤ 4.28

QFKQDSKYSH
pKd (HLA-A*03:01; [7]): ≤ 4.15
pKd (HLA-A*11:01; [7]): ≤ 4.16
pKd (HLA-A*31:01; [7]): 4.89
pKd (HLA-A*33:01; [7]): 5.54
pKd (HLA-A*68:01; [7]): ≤ 4.15

SSVQLSNNK
pKd (HLA-A*03:01; [1]): 5.66
pKd (HLA-A*11:01; [1]): 8.28
pKd (HLA-A*31:01; [1]): 5.34
pKd (HLA-A*33:01; [1]): ≤ 4.11
pKd (HLA-A*68:01; [1]): 7.70

ESLLKETIQK
pKd (HLA-A*03:01; [1]): 7.57
pKd (HLA-A*11:01; [1]): 8.01
pKd (HLA-A*31:01; [1]): 4.88
pKd (HLA-A*33:01; [1]): 4.83
pKd (HLA-A*68:01; [1]): 6.48

TLYICDKQSH
pKd (HLA-A*03:01; [7]): 4.82
pKd (HLA-A*11:01; [7]): ≤ 4.32
pKd (HLA-A*31:01; [7]): ≤ 4.46
pKd (HLA-A*33:01; [7]): ≤ 4.15
pKd (HLA-A*68:01; [7]): ≤ 4.15

LFLEEMLRTR
pKd (HLA-A*31:01; [8]): 6.14
pKd (HLA-A*33:01; [8]): 6.16

YVPSAEDNY
pKd (HLA-A*03:01; [1]): ≤ 4.11
pKd (HLA-A*11:01; [1]): ≤ 4.11
pKd (HLA-A*31:01; [1]): ≤ 4.11
pKd (HLA-A*33:01; [1]): ≤ 4.11
pKd (HLA-A*68:01; [1]): ≤ 4.44

VTIKYSNDNR
pKd (HLA-A*03:01; [1]): 4.99
pKd (HLA-A*11:01; [1]): 7.27
pKd (HLA-A*31:01; [1]): 6.40
pKd (HLA-A*33:01; [1]): 5.17
pKd (HLA-A*68:01; [1]): 8.63

TAMAFHLSTR
pKd (HLA-A*31:01; [9]): 7.46
pKd (HLA-A*33:01; [9]): 7.78
pKd (HLA-A*68:01; [9]): 8.07

IIGPMFSGK
pKd (HLA-A*03:01; [1]): 9.14
pKd (HLA-A*11:01; [1]): 8.75
pKd (HLA-A*31:01; [1]): 5.20
pKd (HLA-A*33:01; [1]): 5.13
pKd (HLA-A*68:01; [1]): 7.00

RVSTPQGLVK
pKd (HLA-A*03:01; [9]): 8.23
pKd (HLA-A*11:01; [9]): 7.27

NISFKSINK
pKd (HLA-A*03:01; [1]): 7.83
pKd (HLA-A*11:01; [1]): 7.38
pKd (HLA-A*31:01; [1]): 5.01
pKd (HLA-A*33:01; [1]): 5.50
pKd (HLA-A*68:01; [1]): 6.92

RSKMLKRGSR
pKd (HLA-A*03:01; [1]): 6.55
pKd (HLA-A*11:01; [1]): 5.93
pKd (HLA-A*31:01; [1]): 9.21
pKd (HLA-A*33:01; [1]): 6.89
pKd (HLA-A*68:01; [1]): 6.78

NLLVQYGAK
pKd (HLA-A*03:01; [1]): 6.56
pKd (HLA-A*11:01; [1]): 4.90
pKd (HLA-A*31:01; [1]): ≤ 4.68
pKd (HLA-A*33:01; [1]): ≤ 4.65
pKd (HLA-A*68:01; [1]): 5.60

KIEEIEKVEK
pKd (HLA-A*03:01; [1]): 5.82
pKd (HLA-A*11:01; [1]): 6.15
pKd (HLA-A*31:01; [1]): 5.05
pKd (HLA-A*33:01; [1]): ≤ 4.33
pKd (HLA-A*68:01; [1]): 6.38

DTVWEVQGYK
pKd (HLA-A*03:01; [5]): 7.23
pKd (HLA-A*11:01; [5]): 7.13
pKd (HLA-A*31:01; [5]): 5.12
pKd (HLA-A*33:01; [5]): 5.77
pKd (HLA-A*68:01; [5]): 9.06

ELGELIGVNY
pKd (HLA-A*03:01; [1]): ≤ 4.15
pKd (HLA-A*11:01; [1]): ≤ 4.16
pKd (HLA-A*31:01; [1]): ≤ 4.15
pKd (HLA-A*33:01; [1]): ≤ 4.15
pKd (HLA-A*68:01; [1]): ≤ 4.42

MIEEVMRSR
pKd (HLA-A*33:01; [6]): 7.04

EFIRIIRPDY
pKd (HLA-A*03:01; [1]): ≤ 4.67
pKd (HLA-A*11:01; [1]): ≤ 4.16
pKd (HLA-A*31:01; [1]): 4.86
pKd (HLA-A*33:01; [1]): 6.03
pKd (HLA-A*68:01; [1]): 4.91

GTGLWTHDK
pKd (HLA-A*03:01; [1]): 7.61
pKd (HLA-A*11:01; [1]): 9.44
pKd (HLA-A*31:01; [1]): 6.09
pKd (HLA-A*33:01; [1]): ≤ 4.18
pKd (HLA-A*68:01; [1]): 6.81

ISGIGTFLHY
pKd (HLA-A*03:01; [1]): 6.45
pKd (HLA-A*11:01; [1]): 6.44
pKd (HLA-A*31:01; [1]): ≤ 4.22
pKd (HLA-A*33:01; [1]): 4.86
pKd (HLA-A*68:01; [1]): 4.71

FCKSCWFENK
pKd (HLA-A*03:01; [10]): ≤ 4.70
pKd (HLA-A*31:01; [10]): 5.61
pKd (HLA-A*33:01; [10]): 5.04

FTDPSSVAAR
pKd (HLA-A*68:01; [9]): 7.17

IITVGMLIY
pKd (HLA-A*03:01; [1]): 5.82
pKd (HLA-A*11:01; [1]): 5.17
pKd (HLA-A*31:01; [1]): 5.97
pKd (HLA-A*33:01; [1]): 5.94
pKd (HLA-A*68:01; [1]): 6.22

NFITKEIKNR
pKd (HLA-A*03:01; [1]): ≤ 4.15
pKd (HLA-A*11:01; [1]): ≤ 4.16
pKd (HLA-A*31:01; [1]): 5.97
pKd (HLA-A*33:01; [1]): 6.77
pKd (HLA-A*68:01; [1]): 6.28

IMNLEMIDER
pKd (HLA-A*03:01; [1]): ≤ 4.15
pKd (HLA-A*11:01; [1]): 4.72
pKd (HLA-A*31:01; [1]): 5.89
pKd (HLA-A*33:01; [1]): 5.81
pKd (HLA-A*68:01; [1]): 5.44

FNMLKRERNR
pKd (HLA-A*33:01; [8]): 7.27

AFNDDGIYIR
pKd (HLA-A*03:01; [1]): ≤ 4.15
pKd (HLA-A*11:01; [1]): 4.74
pKd (HLA-A*31:01; [1]): 6.21
pKd (HLA-A*33:01; [1]): 5.49
pKd (HLA-A*68:01; [1]): 5.77

CLFDRYFKY
pKd (HLA-A*03:01; [5]): 8.84
pKd (HLA-A*11:01; [5]): 9.23
pKd (HLA-A*31:01; [5]): 6.67
pKd (HLA-A*33:01; [5]): 5.81
pKd (HLA-A*68:01; [5]): 6.86

IMFEQYFIY
pKd (HLA-A*03:01; [1]): 8.44
pKd (HLA-A*11:01; [1]): ≤ 4.11
pKd (HLA-A*31:01; [1]): 6.64
pKd (HLA-A*33:01; [1]): 5.49
pKd (HLA-A*68:01; [1]): 6.69
